Reference: the supplement of paper PMC10126150
± gives the standard deviation of the averaged measurements.

Each sequence was assayed on ATP (assay: switch fluorescence ratio, 500 uM ATP over buffer (Cy3 cluster intensity, sum of 5 cycles each) (fold (ratio)); higher = stronger signal-on switching upon ATP binding; sequences stand for … in TCGTCGGCAGCGTCAGATGTGTATAAGAGACAGTTTTTTTTTTTTTTTTTTTTTTTTT…TC). Conditions: aptamer strand: ATP DNA aptamer (quencher-CACCTGGGGGAGTATTGCGGAGGAAGG + anchor), 100 nM annealed; ATP concentration: 500 uM.
Outline: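 Five buffer/ATP imaging cycles were run on Cy3-labelled switching-strand clusters on a modified Illumina MiSeq flow-cell, with NaOH stripping and re-annealing between cycles. In each cycle, clusters annealed to 100 nM quencher-labelled ATP aptamer were imaged in selection buffer, then after 15 min with 500 uM ATP at 22 °C. Per cluster, the fluorescence ratio is summed target-cycle over summed buffer-cycle Cy3 intensity, averaged per switch-domain sequence. Only clusters within 100-1000 RFU were kept.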
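Note: ATP exposure 15 min at 22 °C before imaging.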

Row | Sequence | switch fluorescence ratio
1 | CGGCAGCGGG | 1.03 ± 0.013
2 | AAAAGTCTGA | 1.01 ± 0.041
3 | GCATGGGCTG | 1.04 ± 0.019
4 | AAAGAAAGAT | 1.08 ± 0.17
5 | GAGTAACGGT | 1.03 ± 0.027
6 | AGGTTCTCGG | 0.967 ± 0.026
7 | GTCAAATTGT | 0.992 ± 0.017
8 | TTGAATTTGT | 0.975 ± 0.023
9 | TCAGGTAATG | 0.98 ± 0.033
10 | TGTTCTAGGT | 1.014 ± 0.0018
11 | CGGGTCCAGC | 1.01 ± 0.033
12 | TTTTACCGT | 0.996 ± 0.012
13 | GGGTTTCAAT | 0.9372 ± 0.0067
14 | TGGGTAAGGC | 0.961 ± 0.08
15 | ATTTAGAGGT | 0.965 ± 0.043
16 | AAATCAAATT | 1.007 ± 0.0055
17 | AGCGGATTGG | 1.02 ± 0.061
18 | ATCTGGGGGA | 0.979 ± 0.046
19 | GCTGGGGTGG | 1.01 ± 0.05
20 | GGGGATGAAT | 1 ± 0.024
21 | GTGTCCGGTA | 0.983 ± 0.037
22 | CCGGTAGGGA | 1.01 ± 0.021
23 | TAGCGCTGGT | 1.01 ± 0.02
24 | TGAATAGAGG | 1.012 ± 0.0024
25 | GCCGGCGTCG | 1.03 ± 0.035

Row | Sequence | switch fluorescence ratio
26 | ATGGATATAT | 0.995 ± 0.016
27 | AACATTTAGC | 1.01 ± 0.039
28 | CGTAGGGTTT | 0.976 ± 0.055
29 | ATTTGTGGAC | 0.973 ± 0.037
30 | GTATTATGCG | 1.02 ± 0.028
31 | GCTGTAGGAT | 0.984 ± 0.017
32 | CGGGATGTGC | 0.99328 ± 6e-06
33 | ATGGGGGGAA | 0.996 ± 0.037
34 | TTAAGTTCAT | 0.9806 ± 0.0067
35 | TACCAGCATT | 1.1 ± 0.051
36 | AATTTGGGTC | 0.981 ± 0.016
37 | GTATGATTTA | 0.989 ± 0.037
38 | GGTTTAGGCA | 0.999 ± 0.027
39 | CGGCTGGGTA | 1.014 ± 0.0054
40 | TTAGACATTA | 1.02 ± 0.018
41 | TTTAGGCTGC | 1.01 ± 0.021
42 | TTCGTTAAGA | 0.992 ± 0.0094
43 | TCCGGGTGGG | 1.09 ± 0.079
44 | TCGCCTTTGG | 1.07 ± 0.072
45 | ATTGCGGTTT | 0.991 ± 0.032
46 | ATAAGGATGG | 0.9788 ± 0.0034
47 | TTGACCTGGT | 1.05 ± 0.053
48 | TAGGTCATAT | 1 ± 0.022
49 | GCTAGCCATT | 0.978 ± 0.029
50 | AGTGGTGGTG | 0.9902 ± 0.0039

Row | Sequence | switch fluorescence ratio
51 | GGGAGGAAGG | 0.974 ± 0.028
52 | TAGATAGGGA | 1.01 ± 0.024
53 | CAGTTGGGGT | 0.997 ± 0.022
54 | TGCGACAGTT | 1.006 ± 0.0029
55 | CGAATTACGT | 0.992 ± 0.016
56 | TGAGCTTGGG | 0.99 ± 0.022
57 | CTAGATCGAT | 0.992 ± 0.022
58 | GAGGTGGTGG | 0.998 ± 0.036
59 | CCGGGTTTTG | 1.017 ± 0.0016
60 | ATGTGAGAAT | 0.998 ± 0.037
61 | TTGTTTTTTC | 0.986 ± 0.026
62 | CAGGGCATGG | 1.01 ± 0.0073
63 | GCGATCAATC | 1.71 ± 0.029
64 | CGGGTGATTC | 1.04 ± 0.021
65 | ATTGTTGGTG | 0.986 ± 0.024
66 | CGGTGGGTTA | 0.985 ± 0.025
67 | CTATTTGAGG | 0.9825 ± 0.004
68 | CGCAGAGCAA | 2.538 ± 0.0049
69 | TATGGACTGT | 1.021 ± 0.01
70 | TAAATTAAGT | 1.03 ± 0.029
71 | GCACATGGTG | 1.05 ± 0.021
72 | AAGAGAACGG | 1.04 ± 0.091
73 | GGTCATTTTT | 0.995 ± 0.021
74 | CGAATGGTCG | 1.041 ± 0.0095
75 | TAGGAGAAGT | 0.991 ± 0.042

Row | Sequence | switch fluorescence ratio
76 | CTAAGGGGGA | 1 ± 0.018
77 | CCTAAGGGGG | 1.04 ± 0.074
78 | TTGAAGGTGC | 1.69 ± 0.43
79 | TAAAGGATCC | 1.02 ± 0.041
80 | TTGCAATTAT | 1.26 ± 0.18
81 | TGGGGGCCAA | 0.965 ± 0.012
82 | ACGTTAAGCG | 1.01 ± 0.035
83 | GTCTGTTCTT | 0.951 ± 0.019
84 | CGGTTGACGT | 1.01 ± 0.013
85 | ATGTTGGTAG | 0.985 ± 0.026
86 | TTGGGGAGAG | 0.991 ± 0.01
87 | GCGGGTGGTA | 1.01 ± 0.041
88 | AATTAGGGAA | 1.01 ± 0.023
89 | GGGATAGGTT | 1.07 ± 0.12
90 | AAAAGGAGGA | 1.02 ± 0.043
91 | GTGGCAGGAA | 0.964 ± 0.068
92 | ATGTGGAGAT | 0.977 ± 0.059
93 | CGTGGGGGGG | 1.02 ± 0.052
94 | ATTGTAGGAG | 0.9966 ± 0.0058
95 | TTACCTTTTT | 1.02 ± 0.013
96 | GGAATGGGCG | 1.02 ± 0.042
97 | GGTGGGTGTC | 0.974 ± 0.016
98 | CGGTGAAATG | 0.975 ± 0.017
99 | AGGGGGAGGT | 0.975 ± 0.017
100 | TTTTAAGCCG | 1.01 ± 0.069

Row | Sequence | switch fluorescence ratio
101 | TTGACAGAGT | 1.01 ± 0.028
102 | GGGTTAGACT | 1.07 ± 0.086
103 | CCAGCTGTAT | 1.04 ± 0.0024
104 | GTTTGGGGCA | 0.994 ± 0.033
105 | TTTGGAATGG | 0.991 ± 0.054
106 | TTGAGCCA | 1.01 ± 0.025
107 | TTCAAGATGG | 0.992 ± 0.046
108 | GCATGAACAT | 0.98 ± 0.026
109 | AAGAGTAGGA | 0.989 ± 0.0099
110 | GGGTTTACTA | 0.9552 ± 0.0018
111 | TTTTTGCATT | 1.038 ± 0.0028
112 | AAGGATTGCG | 0.96 ± 0.047
113 | ACTTTTCGGC | 0.9915 ± 0.0073
114 | GCGGAAGGTG | 1.55 ± 0.032
115 | CGGTCAGGGT | 0.995 ± 0.015
116 | TTGGACCCAT | 1.02 ± 0.02
117 | TGTGAGGG | 1.03 ± 0.036
118 | ATTCGAGTGT | 0.984 ± 0.018
119 | TGGCACGGGC | 1.02 ± 0.047
120 | TTGAATAGTG | 0.966 ± 0.029
121 | TCCGTCAGCA | 4.04 ± 0.52
122 | CCAGGGGCGG | 1.067 ± 0.002
123 | GGTTATGGGG | 0.985 ± 0.027
124 | GGCAAAGGGT | 1.06 ± 0.056
125 | TGGACTTATA | 1.02 ± 0.012

Row | Sequence | switch fluorescence ratio
126 | CTCACTGCAT | 1.46 ± 0.11
127 | AAATGGGACT | 1.03 ± 0.026
128 | TCAGTTTGTT | 0.997 ± 0.023
129 | TTTTTAGCTG | 1.04 ± 0.058
130 | GGATTGGTTG | 0.999 ± 0.038
131 | CAAATAAATT | 0.989 ± 0.029
132 | TCAGTGGGGT | 1.004 ± 0.0072
133 | TACGGTAGCC | 1.043 ± 0.0061
134 | TTTTTTGGCG | 1.02 ± 0.15
135 | ATACAAGGGG | 1.03 ± 0.033
136 | GGATTAGCTT | 1.01 ± 0.051
137 | ATTCGTTTTC | 1.02 ± 0.024
138 | ATTTTTTTGT | 1 ± 0.026
139 | AAGGGATATG | 1 ± 0.013
140 | CCATTTTTTT | 0.997 ± 0.042
141 | GGGCTAGGGT | 1.02 ± 0.023
142 | TAAGGTTTGT | 0.988 ± 0.021
143 | AAATTGGGGG | 1.02 ± 0.075
144 | ATTGAAAGAG | 1.21 ± 0.28
145 | AGGTAGAGTG | 0.948 ± 0.038
146 | ACAGGGTTGT | 0.979 ± 0.013
147 | TGCATAGGGG | 0.999 ± 0.018
148 | ACTGTCGTCT | 1.0405 ± 0.00033
149 | AGTTTAAGAA | 0.98 ± 0.031
150 | GAGCAAAGGT | 1.04 ± 0.031

Row | Sequence | switch fluorescence ratio
151 | CGTAGAGCGA | 1.03 ± 0.015
152 | GGATTGTGTT | 0.985 ± 0.0018
153 | TCAGGGAGTA | 1.04 ± 0.053
154 | TTGTGGGGGG | 0.989 ± 0.036
155 | ATCGGGGGGA | 0.986 ± 0.034
156 | TTAGTTATGT | 0.992 ± 0.0093
157 | TCGCTACTCG | 3.07 ± 0.62
158 | CAGTTCTCGT | 0.969 ± 0.018
159 | AAGCCGGGAT | 1.02 ± 0.016
160 | ACACCTTTTT | 1.04 ± 0.032
161 | CCATCTATCG | 1.03 ± 0.026
162 | ACCAGGGTCA | 1.05 ± 0.034
163 | AACTATTGTA | 1.01 ± 0.022
164 | TACTGTGAGC | 1.016 ± 0.0076
165 | TTTGCGTGTT | 1.019 ± 0.0086
166 | CACGGCCCAA | 0.9224 ± 0.0023
167 | GAAGGAAGGT | 0.9996 ± 0.007
168 | AGGGGAGTTA | 1.02 ± 0.051
169 | GAATCACTAA | 1 ± 0.059
170 | TGAAACCCTA | 1.03 ± 0.016
171 | CTGGTGGAGC | 0.954 ± 0.021
172 | AGTAATGTGC | 0.996 ± 0.022
173 | AGGTTAGAAG | 1.006 ± 0.0014
174 | GGTAGGGTGC | 0.985 ± 0.074
175 | GTAGTTTGAA | 0.989 ± 0.036

Row | Sequence | switch fluorescence ratio
176 | TCTAATGGGC | 0.993 ± 0.05
177 | CAATACGGGG | 1.13 ± 0.085
178 | GGGATTTACG | 1.02 ± 0.019
179 | GATGCGGCTA | 1.02 ± 0.018
180 | TCGGGAACGA | 0.999 ± 0.028
181 | CAAGAGTGTG | 0.98 ± 0.032
182 | GTGGGATTTG | 0.9697 ± 0.0069
183 | AGCAGGATGC | 0.987 ± 0.013
184 | TTTTGTTGGC | 1.04 ± 0.035
185 | GAACCGGTAC | 1.21 ± 0.019
186 | GCGGCAAGGA | 1.04 ± 0.017
187 | TCTAATAGCC | 1.03 ± 0.08
188 | TGCAGAAATT | 0.98 ± 0.059
189 | CATTACGCCG | 1.11 ± 0.042
190 | GGGCGCGAAC | 1.06 ± 0.018
191 | AGCTAACGAC | 1.83 ± 0.067
192 | AAGAAAGACT | 1.02 ± 0.013
193 | TCTTGGGGGC | 1.01 ± 0.052
194 | GATGAAGCCT | 1.17 ± 0.035
195 | TAACGGGGCG | 1.01 ± 0.049
196 | TTTTGAAGTA | 1.0186 ± 0.00093
197 | AAGCCGATCT | 0.974 ± 0.046
198 | CATGCAGGGT | 1.04 ± 0.016
199 | TCTCGGCGGA | 1.02 ± 0.028
200 | GGTTTTAGGG | 0.996 ± 0.039
